Experimental data published in patent publication US20230149543A1 (GlaxoSmithKline, published 2023).

Biological target: T1, human ICOS (Inducible T-cell COStimulator) receptor on peripheral CD4 and CD8 T cells (human, UniProt Q9Y6W8 21-199)
T1 construct: Native ICOS on T cells of treated subjects; also called ICOS receptor; CD278
T1 sequence: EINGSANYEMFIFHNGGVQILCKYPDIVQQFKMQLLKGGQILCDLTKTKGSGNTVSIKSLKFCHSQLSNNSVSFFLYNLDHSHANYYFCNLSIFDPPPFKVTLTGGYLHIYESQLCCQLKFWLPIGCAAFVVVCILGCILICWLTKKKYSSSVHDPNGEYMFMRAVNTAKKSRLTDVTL
Experiment: ICOS receptor occupancy on peripheral CD4 and CD8 T cells of dosed subjects (clinical pharmacodynamic analysis)

binding result: binds
B1: H2L5 hIgG4PE (antibody, V domains shown)
VH: QVQLVQSGAEVKKPGSSVKVSCKASGYTFTDYAMHWVRQAPGQGLEWMGLISIYSDHTNYNQKFQGRVTITADKSTSTAYMELSSLRSEDTAVYYCGRNNYGNYGWYFDVWGQGTTVTVSS
VL: EIVLTQSPATLSLSPGERATLSCSASSSVSYMHWYQQKPGQAPRLLIYDTSKLASGIPARFSGSGSGTDYTLTISSLEPEDFAVYYCFQGSGYPYTFGQGTKLEIKR
notes: Humanized IgG4PE (S228P, L235E) monoclonal antibody; also called H2L5 IgG4PE; feladilimab
